# Experimental data reported in publication PMC6750108, “Crystal Structure of 4-Hydroxyphenylpyruvate Dioxygenase in Complex with Substrate Reveals a New Starting Point for Herbicide Discovery” (Research, 2019).
# B1: Arabidopsis thaliana 4-hydroxyphenylpyruvate dioxygenase (enzyme, UniProt P93836 1-445, looked up)
# chain: MGHQNAAVSENQNHDDGAASSPGFKLVGFSKFVRKNPKSDKFKVKRFHHIEFWCGDATNVARRFSWGLGMRFSAKSDLSTGNMVHASYLLTSGDLRFLFTAPYSPSLSAGEIKPTTTASIPSFDHGSCRSFFSSHGLGVRAVAIEVEDAESAFSISVANGAIPSSPPIVLNEAVTIAEVKLYGDVVLRYVSYKAEDTEKSEFLPGFERVEDASSFPLDYGIRRLDHAVGNVPELGPALTYVAGFTGFHQFAEFTADDVGTAESGLNSAVLASNDEMVLLPINEPVHGTKRKSQIQTYLEHNEGAGLQHLALMSEDIFRTLREMRKRSSIGGFDFMPSPPPTYYQNLKKRVGDVLSDDQIKECEELGILVDRDDQGTLLQIFTKPLGDRPTIFIEIIQRVGCMMKDEEGKAYQSGGCGGFGKGNFSELFKSIEEYEKTLEAKQLVG
# notes: 4-hydroxyphenylpyruvate dioxygenase, Arabidopsis thaliana, UniProtKB P93836, full-length protein in pET15b; Crystallised with cobalt(II) chloride and the substrate HPPA; also called AtHPPD; HPPD; source: E. coli BL21 (DE3), purified (Ni-NTA, anion exchange, size exclusion chromatography)
# Target: the molecule itself
# Experiment: crystal structure; AtHPPD-HPPA complex, hanging drop vapor diffusion, with CoCl2 and HPPA; reservoir 36% (w/v) PEG 400, 0.1 M NaCl, 0.1 M sodium acetate pH 5.0, 18°C; space group P 21, four molecules per asymmetric unit
protein,measurement,value
B1,binding result,binds
